Test results taken from patent US20110129459A1 (Chugai, published 2011).

T1: rhNR10 (recombinant human NR10) (human, UniProt Q8NI17 20-519, limits assumed)
T1 construct: also called IL-31 receptor; IL31RA
T1 sequence: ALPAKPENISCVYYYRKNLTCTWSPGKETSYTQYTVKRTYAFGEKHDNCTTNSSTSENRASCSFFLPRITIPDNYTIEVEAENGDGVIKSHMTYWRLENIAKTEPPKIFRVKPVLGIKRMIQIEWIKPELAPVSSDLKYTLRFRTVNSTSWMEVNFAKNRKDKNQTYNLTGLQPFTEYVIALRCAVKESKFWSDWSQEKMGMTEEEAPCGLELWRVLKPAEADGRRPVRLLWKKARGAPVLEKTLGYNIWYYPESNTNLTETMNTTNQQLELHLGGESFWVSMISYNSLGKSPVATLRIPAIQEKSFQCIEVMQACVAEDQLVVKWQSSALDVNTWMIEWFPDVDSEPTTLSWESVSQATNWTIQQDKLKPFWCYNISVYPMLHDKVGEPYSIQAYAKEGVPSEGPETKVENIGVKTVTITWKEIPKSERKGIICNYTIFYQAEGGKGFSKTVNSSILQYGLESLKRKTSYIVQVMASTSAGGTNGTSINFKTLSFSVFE

T2: cytoplasmic domain-lacking human NR10 on CHO cells (hNR10-expressing CHO cells) (human, UniProt Q8NI17 20-553)
T2 construct: also called NR10-expressing cells
T2 sequence: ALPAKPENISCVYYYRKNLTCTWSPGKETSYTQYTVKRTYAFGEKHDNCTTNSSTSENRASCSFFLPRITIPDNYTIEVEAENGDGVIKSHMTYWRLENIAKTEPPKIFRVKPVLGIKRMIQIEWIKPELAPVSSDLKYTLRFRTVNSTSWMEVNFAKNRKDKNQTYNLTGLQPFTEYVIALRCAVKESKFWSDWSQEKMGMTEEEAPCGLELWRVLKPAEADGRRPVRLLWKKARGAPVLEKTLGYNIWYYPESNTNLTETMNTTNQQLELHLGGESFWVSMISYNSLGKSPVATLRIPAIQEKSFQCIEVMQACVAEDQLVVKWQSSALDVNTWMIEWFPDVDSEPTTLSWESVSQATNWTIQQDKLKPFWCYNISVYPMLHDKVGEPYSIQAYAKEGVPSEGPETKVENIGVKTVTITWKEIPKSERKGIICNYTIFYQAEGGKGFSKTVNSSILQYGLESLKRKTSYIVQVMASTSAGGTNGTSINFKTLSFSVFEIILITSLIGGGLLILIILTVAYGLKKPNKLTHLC


What was measured:
[1] = biological target: T1, rhNR10 (recombinant human NR10); experiment: SPR, Biacore T100; antibody captured on Protein A, rhNR10 as analyte
Procedure: Kinetic analysis of the antigen-antibody reaction was carried out using Biacore T100 (GE Healthcare Biosciences). The antigen-antibody interaction was measured by immobilizing rec-Protein A (hereinafter Protein A) (ZYMED) onto a sensor chip, capturing an antibody on the immobilized Protein A, and then reacting the antigen as an analyte. Various concentrations of rhNR10 were used as the antigen. The kinetic parameters, association rate constant kₐ (1/Ms) and dissociation rate constant kd (1/s), were calculated from the sensorgrams obtained by the measurement. Then, KD (M) was determined based on the rate constants. Each parameter was determined using Biacore T100 Evaluation Software version 1.1 (GE Healthcare Biosciences).
The running buffer used was HBS-EP+. Each antibody was prepared at 0.25 μg/ml, or prepared so that about 100 RU would bind to Protein A. rhNR10 used as an analyte was prepared at 0, 38.5, 77.0, and 154 nM, or at 0, 19.25, and 77.01 nM using HBS-EP+. In the measurement, first, the antibody solution was captured on Protein A, and an analyte solution was reacted at a flow rate of 20 μL/min for three minutes. Then, the solution was switched to HBS-EP+, and the dissociation phase was measured for five minutes. After measurement of the dissociation phase, the sensor chip was regenerated by washing with 10 mM glycine-HCl (pH 1.5). The obtained sensorgrams were kinetically analyzed using the Biacore-specific data analysis software, Biacore T100 Evaluation Software Version 1.1.

[2] = biological target: T2, cytoplasmic domain-lacking human NR10 …; experiment: FMAT competition on hNR10-expressing CHO cells: antibody titrated against FMAT Blue-labeled hIL-31; FL1 = cell-bound labeled hIL-31; mean±S.D. (n=3)
Procedure: Antibodies were assessed for the activity of inhibiting the IL-31/NR10 binding by using hNR10-expressing CHO cells as described below. The chimeric NS22 antibody and NS22_H0L0 (H chain, H0-SKSC/SEQ ID NO: 54; L chain, L0/SEQ ID NO: 56) were diluted at an appropriate concentration using Assay buffer (10 mM HEPES, 140 mM NaCl, 2.5 mM CaCl₂, 3 mM MgCl₂, 2% FBS, 0.01% NaN₃, pH7.4), and further eight serial dilutions were prepared at a common dilution ration of 2. The dilutions were added at 40 μl/well to plates (96-Well FMAT Plates, Applied Biosystems). Then, FMAT Blue-labeled hIL-31 was diluted 400 times with Assay buffer, and added at 20 μl/well. Finally, a cell suspension adjusted to 2.5×10⁵ cells/ml using Assay buffer was added at 40 μl/well (final 1×10⁴ cells/well). Two hours after addition of cells, the fluorescence (FL1) was measured using the 8200 Cellular Detection System (Applied Biosystems).
Each variant was tested for the activity of inhibiting the hIL-31/hNR10 binding by using FMAT. The test was carried out according to the method as described in Example 4.

Binder | binding result [2] | further results
Hp3Lp15 (Hp3-SKSC / Lp15) (antibody, V domains shown, also called Hp3Lp15-SKSC) VH: QVQLVQSGAEVKKPGASVKVSCKASGYTFTGYIMNWVRQAPGQGLEWMGLINPYNGGTSYNQQFQDRVTITADESTSTAYMELSSLRSEDTAVYYCARDGYDDGPYTMDYWGQGTLVTVSS VL: DIQMTQSPSSLSASVGDRVTITCQTSEDIYSFLAWYQQKPGKAPKLLIYNAQTEAQGVPSRFSGSGSGTDFTLTISSLQPEDFATYYCQHHYESPLTFGGGTKVEIKR | – | Kd [1]: 3.9 nM; koff [1]: 0.0016 s⁻¹; kon [1]: 420000 M⁻¹ s⁻¹
Lp2 variant of H0L0 (antibody, V domains shown) VH: QVQLVQSGAEVKKPGASVKVSCKASGYTFTGYIMNWVRQAPGQGLEWMGLINPYNGGTSYNQKFKGRVTITADESTSTAYMELSSLRSEDTAVYYCARDGYDDGPYTMDYWGQGTLVTVSS VL: DIQMTQSPSSLSASVGDRVTITCRTSEDIYSFLAWYQQKPGKAPKLLIYNAKTLAKGVPSRFSGSGSGTDFTLTISSLQPEDFATYYCQHHYESPLTFGGGTKVEIK | binds | –
Lp1 variant of H0L0 (antibody, V domains shown) VH: QVQLVQSGAEVKKPGASVKVSCKASGYTFTGYIMNWVRQAPGQGLEWMGLINPYNGGTSYNQKFKGRVTITADESTSTAYMELSSLRSEDTAVYYCARDGYDDGPYTMDYWGQGTLVTVSS VL: DIQMTQSPSSLSASVGDRVTITCQTSENIYSFLAWYQQKPGKAPKLLIYNAKTLAKGVPSRFSGSGSGTDFTLTISSLQPEDFATYYCQHHYESPLTFGGGTKVEIK | binds | –
Hp7 variant of H0L0 (antibody, V domains shown) VH: QVQLVQSGAEVKKPGASVKVSCKASGYTFTGYIMNWVRQAPGQGLEWMGEINPYNGGTSYNQKFKGRVTITADESTSTAYMELSSLRSEDTAVYYCARDGYDDGPYTMDYWGQGTLVTVSS VL: DIQMTQSPSSLSASVGDRVTITCRTSENIYSFLAWYQQKPGKAPKLLIYNAKTLAKGVPSRFSGSGSGTDFTLTISSLQPEDFATYYCQHHYESPLTFGGGTKVEIK | binds | –
Hp9 variant of H0L0 (antibody, V domains shown) VH: QVQLVQSGAEVKKPGASVKVSCKASGYTFTGYIMNWVRQAPGQGLEWMGLINPYNGGTSYNQQFKGRVTITADESTSTAYMELSSLRSEDTAVYYCARDGYDDGPYTMDYWGQGTLVTVSS VL: DIQMTQSPSSLSASVGDRVTITCRTSENIYSFLAWYQQKPGKAPKLLIYNAKTLAKGVPSRFSGSGSGTDFTLTISSLQPEDFATYYCQHHYESPLTFGGGTKVEIK | – | IC50 (read off the curve) [2]: ~0.1 µg/mL
Hp6 variant of H0L0 (antibody, V domains shown) VH: QVQLVQSGAEVKKPGASVKVSCKASGYTFTGYIMNWVRQAPGQGLEWMGLINPYNGGTSYNDKFKGRVTITADESTSTAYMELSSLRSEDTAVYYCARDGYDDGPYTMDYWGQGTLVTVSS VL: DIQMTQSPSSLSASVGDRVTITCRTSENIYSFLAWYQQKPGKAPKLLIYNAKTLAKGVPSRFSGSGSGTDFTLTISSLQPEDFATYYCQHHYESPLTFGGGTKVEIK | – | IC50 (read off the curve) [2]: ~0.1 µg/mL
H19L12 (H19-M58 / L12) (antibody, V domains shown) VH: QVQLVQSGAEVKKPGASVKVSCKASGYTFTGYAMNWVRQAPGQGLEWMGLINPYNGGTDYNPQFQDRVTITADESTSTAYMELSSLRSEDTAVYYCARDGYDDGPYTMDYWGQGTLVTVSS VL: DIQMTQSPSSLSASVGDRVTITCQTSEDIYSFVAWYQQKPGKAPKLLIYNAQTEAQGVPSRFSGSGSGTDFTLTISSLQPEDFATYYCQHHYDSPLTFGGGTKVEIKR | – | Kd [1]: 5.1 nM; koff [1]: 0.0012 s⁻¹; kon [1]: 230000 M⁻¹ s⁻¹

The next lines start with results.

binding result [2] | Binder | further results
binds | Lp4 variant of H0L0 (antibody, V domains shown) VH: QVQLVQSGAEVKKPGASVKVSCKASGYTFTGYIMNWVRQAPGQGLEWMGLINPYNGGTSYNQKFKGRVTITADESTSTAYMELSSLRSEDTAVYYCARDGYDDGPYTMDYWGQGTLVTVSS VL: DIQMTQSPSSLSASVGDRVTITCRTSENIYSFLAWYQQKPGKAPKLLIYNAQTLAKGVPSRFSGSGSGTDFTLTISSLQPEDFATYYCQHHYESPLTFGGGTKVEIK | –
binds | Lp7 variant of H0L0 (antibody, V domains shown) VH: QVQLVQSGAEVKKPGASVKVSCKASGYTFTGYIMNWVRQAPGQGLEWMGLINPYNGGTSYNQKFKGRVTITADESTSTAYMELSSLRSEDTAVYYCARDGYDDGPYTMDYWGQGTLVTVSS VL: DIQMTQSPSSLSASVGDRVTITCRTSENIYSFLAWYQQKPGKAPKLLIYNAKTEAKGVPSRFSGSGSGTDFTLTISSLQPEDFATYYCQHHYESPLTFGGGTKVEIK | –
binds | Hp5 variant of H0L0 (antibody, V domains shown) VH: QVQLVQSGAEVKKPGASVKVSCKASGYTFTGYIMNWVQQSPGQGLEWMGLINPYNGGTSYNQKFKGRVTITADESTSTAYMELSSLRSEDTAVYYCARDGYDDGPYTMDYWGQGTLVTVSS VL: DIQMTQSPSSLSASVGDRVTITCRTSENIYSFLAWYQQKPGKAPKLLIYNAKTLAKGVPSRFSGSGSGTDFTLTISSLQPEDFATYYCQHHYESPLTFGGGTKVEIK | –
binds | Hp13 variant of H0L0 (antibody, V domains shown) VH: QVQLVQSGAEVKKPGASVKVSCKASGYTFTGYIMNWVRQAPGQGLEWMGLINPYNGGTSYNQKFQDRVTITADESTSTAYMELSSLRSEDTAVYYCARDGYDDGPYTMDYWGQGTLVTVSS VL: DIQMTQSPSSLSASVGDRVTITCRTSENIYSFLAWYQQKPGKAPKLLIYNAKTLAKGVPSRFSGSGSGTDFTLTISSLQPEDFATYYCQHHYESPLTFGGGTKVEIK | –
binds | Hp8 variant of H0L0 (antibody, V domains shown) VH: QVQLVQSGAEVKKPGASVKVSCKASGYTFTGYIMNWVRQAPGQGLEWMGLIDPYNGGTSYNQKFKGRVTITADESTSTAYMELSSLRSEDTAVYYCARDGYDDGPYTMDYWGQGTLVTVSS VL: DIQMTQSPSSLSASVGDRVTITCRTSENIYSFLAWYQQKPGKAPKLLIYNAKTLAKGVPSRFSGSGSGTDFTLTISSLQPEDFATYYCQHHYESPLTFGGGTKVEIK | –
binds | Lp3 variant of H0L0 (antibody, V domains shown) VH: QVQLVQSGAEVKKPGASVKVSCKASGYTFTGYIMNWVRQAPGQGLEWMGLINPYNGGTSYNQKFKGRVTITADESTSTAYMELSSLRSEDTAVYYCARDGYDDGPYTMDYWGQGTLVTVSS VL: DIQMTQSPSSLSASVGDRVTITCRTSENIYSFLAWYQQKPGKAPKLLIYDAKTLAKGVPSRFSGSGSGTDFTLTISSLQPEDFATYYCQHHYESPLTFGGGTKVEIK | –
